PMC8348266, “Intrinsically disordered electronegative clusters improve stability and binding specificity of RNA-binding proteins”

What was measured:
Nop15 no-ENC [1] = target: T1, Nop15 no-ENC (Saccharomyces cerevisiae, UniProt P53927 =SGGSSGKSGSG+50-191, internal_change); experiment: fluorescence polarization; 50 mM NaCl; Nop15 FP: 10 nM RNA/DNA, 20 mM Tris-HCl pH 7.5, 0.02% Tween 20, 150 or 50 mM NaCl; SRSF3 FP: 10 mM MES pH 5.5, 50 mM Arg/Glu, 0.1 mM TCEP, 0.02% Tween 20; incubated 37 °C 30 min then 25 °C 20 min, read at RT; conditions: protein: recombinant; tags: N-terminal SUMO tag (pSMT3) cleaved with Ulp1; label: 5' fluorescein; single strand
T1 sequence: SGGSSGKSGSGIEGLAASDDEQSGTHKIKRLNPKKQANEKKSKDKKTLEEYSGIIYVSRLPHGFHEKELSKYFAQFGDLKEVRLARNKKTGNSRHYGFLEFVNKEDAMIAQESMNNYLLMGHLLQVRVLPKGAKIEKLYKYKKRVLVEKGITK

Nop15 2xENC [2] = target: T2, Nop15 2xENC (Saccharomyces cerevisiae, UniProt P53927 39-49+39-191, internal_change); experiment: fluorescence polarization; ND, too weak for detection; Nop15 FP: 10 nM RNA/DNA, 20 mM Tris-HCl pH 7.5, 0.02% Tween 20, 150 or 50 mM NaCl; SRSF3 FP: 10 mM MES pH 5.5, 50 mM Arg/Glu, 0.1 mM TCEP, 0.02% Tween 20; incubated 37 °C 30 min then 25 °C 20 min, read at RT; conditions: protein: recombinant; tags: N-terminal SUMO tag (pSMT3) cleaved with Ulp1; label: 5' fluorescein; single strand
T2 sequence: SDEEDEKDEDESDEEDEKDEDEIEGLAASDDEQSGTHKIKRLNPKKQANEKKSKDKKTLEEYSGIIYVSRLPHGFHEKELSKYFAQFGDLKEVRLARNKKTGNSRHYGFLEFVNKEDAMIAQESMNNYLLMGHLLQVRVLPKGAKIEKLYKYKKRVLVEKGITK

Nop15 no-linker [3] = target: T3, Nop15 no-linker (Saccharomyces cerevisiae, UniProt P53927 40-191, del60-76); experiment: as above; conditions: protein: recombinant; tags: N-terminal SUMO tag (pSMT3) cleaved with Ulp1; label: 5' fluorescein; single strand
T3 sequence: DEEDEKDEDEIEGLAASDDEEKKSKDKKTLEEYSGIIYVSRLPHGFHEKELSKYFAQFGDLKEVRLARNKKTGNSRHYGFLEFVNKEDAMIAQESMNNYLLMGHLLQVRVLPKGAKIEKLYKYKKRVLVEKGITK

Nop15 WT (1xENC) = target: T4, Nop15 WT (1xENC) (Saccharomyces cerevisiae, UniProt P53927 40-191); experiment: fluorescence polarization; 150 mM NaCl; Nop15 FP: 10 nM RNA/DNA, 20 mM Tris-HCl pH 7.5, 0.02% Tween 20, 150 or 50 mM NaCl; SRSF3 FP: 10 mM MES pH 5.5, 50 mM Arg/Glu, 0.1 mM TCEP, 0.02% Tween 20; incubated 37 °C 30 min then 25 °C 20 min, read at RT; conditions: protein: recombinant, tags: N-terminal SUMO tag (pSMT3) cleaved with Ulp1, label: 5' fluorescein
T4 sequence: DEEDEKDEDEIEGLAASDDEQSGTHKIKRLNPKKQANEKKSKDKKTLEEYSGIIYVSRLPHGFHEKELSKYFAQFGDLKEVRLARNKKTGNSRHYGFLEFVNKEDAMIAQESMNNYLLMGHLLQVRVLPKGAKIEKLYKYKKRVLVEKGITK

Nop15 2xENC [4] = target: T2, Nop15 2xENC; experiment: as above; conditions: protein: recombinant; tags: N-terminal SUMO tag (pSMT3) cleaved with Ulp1; label: 5' fluorescein; hairpin with 8 bp stem and 9-nt single-stranded region
Nop15 no-ENC [5] = target: T1, Nop15 no-ENC; experiment: as above; conditions: protein: recombinant, tags: N-terminal SUMO tag (pSMT3) cleaved with Ulp1, label: 5' fluorescein
Nop15 no-linker [6] = target: T3, Nop15 no-linker; experiment: as above; conditions: protein: recombinant, tags: N-terminal SUMO tag (pSMT3) cleaved with Ulp1, label: 5' fluorescein
[7] = hairpin with 8 bp stem and 9-nt single-stranded region

UUCAGAGCA (ssRNA) [nonspecific ssRNA]
Kd (Nop15 no-ENC [1]): 427 ± 98 nM | binding result (Nop15 2xENC [2]): no binding | binding result (Nop15 no-linker [3]): no binding

UGAGUGAUACUCUUUGGAGUUAACUUGAAAUUGCU (structured_RNA) [ITS2 III.A 26-60]
Kd (Nop15 WT (1xENC); [7]): 215 ± 34 nM | Kd (Nop15 2xENC [4]): 1870 ± 270 nM | Kd (Nop15 no-ENC [5]; [7]): 173 ± 32 nM | Kd (Nop15 no-linker [6]; [7]): 583 ± 90 nM

AGAGAGAGA (ssDNA) [nonspecific ssDNA]
Kd (Nop15 no-ENC [1]): 1160 ± 150 nM | binding result (Nop15 2xENC [2]): no binding | binding result (Nop15 no-linker [3]): no binding

AGAGAGAGAGUCUCUCUCUC (structured_RNA) [nonspecific stem-loop RNA]
Kd (Nop15 WT (1xENC); hairpin, 8 bp stem): 945 ± 65 nM | Kd (Nop15 no-ENC [5]; hairpin, 8 bp stem): 244 ± 18 nM | Kd (Nop15 no-linker [6]; hairpin, 8 bp stem): 14100 ± 1400 nM
